Experimental data reported in the supplement of paper PMC11908140.

B1: library; numbered along this chain (parent)
chain: MRKPRAAVGSGHRKQAASQEGRQKHAKNNSQAKPSACDGLARQPEEVVLQASVSSYHLFRDVAEVTAFRGSLLSWYDQEKRDLPWRRRAEDEMDLDRRAYAVWVSEVMLQQTQVATVINYYTGWMQKWPTLQDLASASLEEVNQLWAGLGYYSRGRRLQEGARKVVEELGGHMPRTAETLQQLLPGVGRYTAGAIASIAFGQATGVVDGNVARVLCRVRAIGADPSSTLVSQQLWGLAQQLVDPARPGDFNQAAMELGATVCTPQRPLCSQCPVESLCRARQRVEQEQLLASGSLSGSPDVEECAPNTGQCHLCLPPSEPWDQTLGVVNFPRKASRKPPREESSATCVLEQPGALGAQILLVQRPNSGLLAGLWEFPSVTWEPSEQLQRKALLQELQRWAGPLPATHLRHLGEVVHTFSHIKLTYQVYGLALEGQTPVTTVPPGARWLTQEEFHTAAVSTAMKKVFRVYQGQQPGTCMGSKRSQVSSPCSRKKPRMGQQVLDNFFRSHISTDAHSLNSAAQ

Variants of: B1
Assay: 8OG:A repair function score (normalized; synonymous = 0, nonsense = -1) (normalized log-likelihood score); higher = more repair activity (WT-like)
Conditions: with 8OG:A DNA repair reporter (GFP) in HEK-293 MUTYH KO cells
Outline: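 After 72 h, viable mCherry+ cells were split into GFP+ (repair) and GFP− bins in three replicates per tile. These cells were MUTYH knockout HEK-293 cells holding lentiviral MUTYH cDNA NNN codon-scan libraries, kept in 10 pg/ml doxycycline and co-transfected with mCherry plus an 8OG:A GFP repair reporter. Sequencing of tile amplicons gave per-tile Rosace fitness scores, normalized into a repair function score anchored on synonymous and nonsense distributions. Synonymous medians were fixed at 0, nonsense at -1, and variants under 300 counts per million at the start were removed.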
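Further: cells sorted at 72 h after reporter transfection.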

Compared with S335F, S335I is higher in “8OG:A repair function score” value: -0.0626 for the first, -0.000462 for the second.

Going from S335A to S335P, the “8OG:A repair function score” value falls from 0.0331 to -0.028.

First: S335L
Second: S335Q
The “8OG:A repair function score” value of the first is lower: -0.0705 for the first, -0.044 for the second.

Going from S335E to S335K, the “8OG:A repair function score” value rises from -0.0481 to 0.029.

Going from S335H to S335G, the “8OG:A repair function score” value falls from 0.0625 to -0.02.

First: S335R
Second: S335M
The “8OG:A repair function score” value of the first is lower: -0.0718 for the first, -0.0531 for the second.

First: S335W
Second: S335Y
The “8OG:A repair function score” value of the first is lower: -0.0943 for the first, -0.0347 for the second.

Compared with S335D, S335C is higher in “8OG:A repair function score” value: -0.0695 for the first, -0.0251 for the second.

Going from S335V to S335T, the “8OG:A repair function score” value rises from -0.0166 to 0.005.

Going from S335N to R340H, the “8OG:A repair function score” value falls from 0.0783 to -0.253.

Compared with R340A, R340C is lower in “8OG:A repair function score” value: -0.0533 for the first, -0.18 for the second.

Compared with R340D, R340Q is higher in “8OG:A repair function score” value: -0.385 for the first, -0.171 for the second.

Compared with R340G, R340Y is lower in “8OG:A repair function score” value: -0.129 for the first, -0.205 for the second.

Compared with R340S, R340E is higher in “8OG:A repair function score” value: -0.153 for the first, -0.133 for the second.

Going from R340P to R340K, the “8OG:A repair function score” value rises from -0.328 to -0.0186.

Going from R340M to R340F, the “8OG:A repair function score” value falls from -0.107 to -0.491.

Compared with R340L, R340W is higher in “8OG:A repair function score” value: -0.211 for the first, -0.144 for the second.

First: R340T
Second: R340I
The “8OG:A repair function score” value of the first is higher: -0.0938 for the first, -0.119 for the second.

Going from R340V to R340N, the “8OG:A repair function score” value rises from -0.304 to -0.24.

Compared with S343H, S343K is higher in “8OG:A repair function score” value: 0.00619 for the first, 0.133 for the second.

Going from S343F to S343Q, the “8OG:A repair function score” value falls from -0.0296 to -0.144.

Compared with S343V, S343R is higher in “8OG:A repair function score” value: 0.0196 for the first, 0.0819 for the second.

Going from S343L to S343E, the “8OG:A repair function score” value rises from -0.124 to -0.015.

First: S343M
Second: S343T
The “8OG:A repair function score” value of the first is higher: 0.0865 for the first, -0.0419 for the second.

Going from S343I to S343Y, the “8OG:A repair function score” value rises from -0.0485 to 0.129.

First: S343G
Second: S343W
The “8OG:A repair function score” value of the first is higher: -0.00518 for the first, -0.0714 for the second.

Going from S343C to S343P, the “8OG:A repair function score” value falls from 0.00733 to -0.144.

Going from S343N to S343D, the “8OG:A repair function score” value rises from -0.0331 to 0.0576.

First: S343A
Second: R336Q
The “8OG:A repair function score” value of the first is higher: 0.0302 for the first, -0.218 for the second.

Going from R336S to R336E, the “8OG:A repair function score” value falls from -0.097 to -0.151.

First: R336G
Second: R336D
The “8OG:A repair function score” value of the first is higher: -0.112 for the first, -0.271 for the second.

Compared with R336I, R336Y is lower in “8OG:A repair function score” value: -0.113 for the first, -0.18 for the second.

Going from R336F to R336A, the “8OG:A repair function score” value rises from -0.164 to -0.0267.

First: R336V
Second: R336C
The “8OG:A repair function score” value of the first is lower: -0.148 for the first, -0.0115 for the second.

Going from R336L to R336M, the “8OG:A repair function score” value rises from -0.22 to -0.117.

Going from R336P to R336K, the “8OG:A repair function score” value rises from -0.136 to -0.0529.

Going from R336T to R336W, the “8OG:A repair function score” value rises from -0.118 to -0.0779.

First: R336H
Second: R336N
The “8OG:A repair function score” value of the first is lower: -0.173 for the first, -0.101 for the second.

Compared with V327A, V327H is lower in “8OG:A repair function score” value: -0.205 for the first, -0.532 for the second.

Compared with V327L, V327P is higher in “8OG:A repair function score” value: -0.388 for the first, -0.051 for the second.

Going from V327R to V327I, the “8OG:A repair function score” value rises from -0.583 to -0.257.

First: V327N
Second: V327D
The “8OG:A repair function score” value of the first is higher: -0.696 for the first, -0.777 for the second.

First: V327Y
Second: V327E
The “8OG:A repair function score” value of the first is lower: -0.526 for the first, -0.178 for the second.

Compared with V327K, V327W is higher in “8OG:A repair function score” value: -0.459 for the first, -0.425 for the second.

First: V327G
Second: V327Q
The “8OG:A repair function score” value of the first is lower: -0.53 for the first, -0.4 for the second.

Compared with V327M, V327C is higher in “8OG:A repair function score” value: -0.375 for the first, -0.201 for the second.

Compared with V327F, V327T is higher in “8OG:A repair function score” value: -0.513 for the first, -0.119 for the second.

Going from V327S to P331V, the “8OG:A repair function score” value falls from -0.274 to -0.568.

Compared with P331Y, P331G is higher in “8OG:A repair function score” value: -0.276 for the first, -0.0671 for the second.

First: P331M
Second: P331S
The “8OG:A repair function score” value of the first is lower: -0.254 for the first, -0.197 for the second.

Going from P331E to P331Q, the “8OG:A repair function score” value falls from -0.568 to -0.608.

Going from P331A to P331L, the “8OG:A repair function score” value falls from -0.0508 to -0.609.

Compared with P331I, P331C is higher in “8OG:A repair function score” value: -0.596 for the first, -0.105 for the second.

Going from P331N to P331R, the “8OG:A repair function score” value falls from -0.316 to -0.474.

Compared with P331K, P331F is lower in “8OG:A repair function score” value: -0.332 for the first, -0.357 for the second.

First: P331H
Second: P331D
The “8OG:A repair function score” value of the first is higher: -0.439 for the first, -0.501 for the second.

Compared with P331W, P331T is lower in “8OG:A repair function score” value: -0.233 for the first, -0.351 for the second.

Going from A334C to A334G, the “8OG:A repair function score” value rises from -0.0888 to -0.0343.

First: A334Q
Second: A334N
The “8OG:A repair function score” value of the first is lower: -0.103 for the first, 0.0217 for the second.

First: A334R
Second: A334L
The “8OG:A repair function score” value of the first is higher: 0.0363 for the first, -0.0917 for the second.

Compared with A334E, A334P is lower in “8OG:A repair function score” value: -0.0264 for the first, -0.147 for the second.

Compared with A334Y, A334K is lower in “8OG:A repair function score” value: 0.0534 for the first, 0.00736 for the second.

Going from A334W to A334F, the “8OG:A repair function score” value rises from -0.28 to -0.0391.

Compared with A334S, A334D is lower in “8OG:A repair function score” value: 0.0289 for the first, -0.242 for the second.

First: A334I
Second: A334V
The “8OG:A repair function score” value of the first is lower: -0.198 for the first, 0.00558 for the second.

Going from A334H to A334T, the “8OG:A repair function score” value falls from 0.0495 to -0.0373.

First: E341C
Second: E341H
The “8OG:A repair function score” value of the first is lower: -0.0275 for the first, 0.0806 for the second.

Compared with E341T, E341I is lower in “8OG:A repair function score” value: 0.0246 for the first, -0.0537 for the second.

First: E341Y
Second: E341K
The “8OG:A repair function score” value of the first is higher: -0.00525 for the first, -0.0881 for the second.

First: E341Q
Second: E341G
The “8OG:A repair function score” value of the first is higher: -0.0264 for the first, -0.208 for the second.

First: E341S
Second: E341V
The “8OG:A repair function score” value of the first is higher: -0.0269 for the first, -0.0649 for the second.

Compared with E341N, E341W is higher in “8OG:A repair function score” value: -0.0613 for the first, 0.0472 for the second.

Compared with E341P, E341F is lower in “8OG:A repair function score” value: -0.0298 for the first, -0.0534 for the second.

Going from E341L to E341A, the “8OG:A repair function score” value rises from -0.00796 to 0.0808.

Going from E341D to E341R, the “8OG:A repair function score” value rises from -0.0128 to 0.0117.

First: V328D
Second: V328A
The “8OG:A repair function score” value of the first is lower: -0.227 for the first, -0.0621 for the second.

Going from V328E to V328P, the “8OG:A repair function score” value falls from -0.157 to -0.507.

First: V328T
Second: V328F
The “8OG:A repair function score” value of the first is higher: -0.077 for the first, -0.215 for the second.

Going from V328H to V328L, the “8OG:A repair function score” value rises from -0.251 to 0.0391.

Compared with V328Y, V328I is higher in “8OG:A repair function score” value: -0.134 for the first, -0.0358 for the second.

Compared with V328W, V328M is higher in “8OG:A repair function score” value: -0.0588 for the first, -0.0227 for the second.

First: V328N
Second: V328S
The “8OG:A repair function score” value of the first is lower: -0.0823 for the first, -0.00939 for the second.

Compared with V328K, V328C is higher in “8OG:A repair function score” value: 0.0221 for the first, 0.0567 for the second.

For V328G, the “8OG:A repair function score” value was -0.0273.
